Blank lines part the entries; values can stand above or below the binder they belong to.
Legend:
[1] = molecular target: T1, SNAP associated protein, transcript variant 1 (human, UniProt O95295 2-136); assay: protein array
T1 construct: on protein array; also called SNAPIN
T1 sequence: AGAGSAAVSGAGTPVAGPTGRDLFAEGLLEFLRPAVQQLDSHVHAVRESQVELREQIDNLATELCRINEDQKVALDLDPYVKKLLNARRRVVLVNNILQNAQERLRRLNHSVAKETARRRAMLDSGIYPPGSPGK

[2] = molecular target: T2, KH RNA binding domain containing, signal transduction associated 2, transcript variant 2 (human, UniProt Q5VWX1 1-349); assay: protein array
T2 construct: on protein array; also called KHDRBS2
T2 sequence: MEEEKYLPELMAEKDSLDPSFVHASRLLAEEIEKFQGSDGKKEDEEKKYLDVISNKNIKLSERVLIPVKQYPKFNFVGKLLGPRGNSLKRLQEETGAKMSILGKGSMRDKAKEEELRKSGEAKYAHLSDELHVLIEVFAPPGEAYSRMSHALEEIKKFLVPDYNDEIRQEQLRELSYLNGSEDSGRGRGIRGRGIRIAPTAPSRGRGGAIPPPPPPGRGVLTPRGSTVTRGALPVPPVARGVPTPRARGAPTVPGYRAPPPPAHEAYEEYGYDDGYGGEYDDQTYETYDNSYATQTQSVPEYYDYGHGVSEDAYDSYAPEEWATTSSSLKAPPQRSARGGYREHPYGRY

extended synaptotagmin 2 = molecular target: T3, extended synaptotagmin 2 (human, UniProt A0FGR8 564-921); assay: protein array
T3 construct: on protein array; also called ESYT2_frag
T3 sequence: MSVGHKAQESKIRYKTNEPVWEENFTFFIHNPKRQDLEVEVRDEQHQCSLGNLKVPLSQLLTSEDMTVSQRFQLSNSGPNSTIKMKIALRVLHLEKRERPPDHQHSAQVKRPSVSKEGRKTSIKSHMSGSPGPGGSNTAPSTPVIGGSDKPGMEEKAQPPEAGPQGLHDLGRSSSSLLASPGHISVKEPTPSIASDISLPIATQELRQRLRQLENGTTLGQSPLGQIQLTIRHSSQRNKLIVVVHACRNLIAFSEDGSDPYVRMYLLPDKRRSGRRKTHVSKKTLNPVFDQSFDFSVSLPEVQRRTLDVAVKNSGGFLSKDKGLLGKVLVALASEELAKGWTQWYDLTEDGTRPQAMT

[3] = molecular target: T4, sorting nexin 33, transcript variant 1 (human, UniProt Q8WV41 1-574); assay: protein array
T4 construct: on protein array; also called SNX33
T4 sequence: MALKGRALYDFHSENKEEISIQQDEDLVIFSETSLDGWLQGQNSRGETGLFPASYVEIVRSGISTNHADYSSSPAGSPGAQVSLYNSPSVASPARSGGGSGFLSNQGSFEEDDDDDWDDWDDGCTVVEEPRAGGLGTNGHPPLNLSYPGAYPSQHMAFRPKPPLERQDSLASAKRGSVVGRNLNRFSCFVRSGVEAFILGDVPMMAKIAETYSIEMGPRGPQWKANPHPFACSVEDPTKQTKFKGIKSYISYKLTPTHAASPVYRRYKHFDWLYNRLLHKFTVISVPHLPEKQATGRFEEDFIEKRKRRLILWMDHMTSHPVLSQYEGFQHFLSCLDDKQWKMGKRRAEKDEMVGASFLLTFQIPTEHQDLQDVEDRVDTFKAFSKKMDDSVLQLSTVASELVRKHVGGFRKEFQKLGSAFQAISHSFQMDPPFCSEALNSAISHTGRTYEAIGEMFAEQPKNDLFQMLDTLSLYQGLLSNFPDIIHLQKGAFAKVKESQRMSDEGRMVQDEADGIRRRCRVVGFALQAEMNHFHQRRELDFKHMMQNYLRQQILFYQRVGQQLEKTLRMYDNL

LN608403.1_frag = molecular target: T5, LN608403.1_frag (human); assay: protein array
T5 construct: on protein array
T5 chain: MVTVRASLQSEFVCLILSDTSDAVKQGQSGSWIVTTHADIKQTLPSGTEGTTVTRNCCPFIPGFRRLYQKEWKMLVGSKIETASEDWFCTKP

[4] = molecular target: T6, JPX transcript, XIST activator (human); assay: protein array
T6 construct: on protein array
T6 chain: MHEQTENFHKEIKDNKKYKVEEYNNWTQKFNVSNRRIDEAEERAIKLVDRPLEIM

[5] = molecular target: T7, UTP6 small subunit processome component (human, UniProt Q9NYH9 1-597)
T7 sequence: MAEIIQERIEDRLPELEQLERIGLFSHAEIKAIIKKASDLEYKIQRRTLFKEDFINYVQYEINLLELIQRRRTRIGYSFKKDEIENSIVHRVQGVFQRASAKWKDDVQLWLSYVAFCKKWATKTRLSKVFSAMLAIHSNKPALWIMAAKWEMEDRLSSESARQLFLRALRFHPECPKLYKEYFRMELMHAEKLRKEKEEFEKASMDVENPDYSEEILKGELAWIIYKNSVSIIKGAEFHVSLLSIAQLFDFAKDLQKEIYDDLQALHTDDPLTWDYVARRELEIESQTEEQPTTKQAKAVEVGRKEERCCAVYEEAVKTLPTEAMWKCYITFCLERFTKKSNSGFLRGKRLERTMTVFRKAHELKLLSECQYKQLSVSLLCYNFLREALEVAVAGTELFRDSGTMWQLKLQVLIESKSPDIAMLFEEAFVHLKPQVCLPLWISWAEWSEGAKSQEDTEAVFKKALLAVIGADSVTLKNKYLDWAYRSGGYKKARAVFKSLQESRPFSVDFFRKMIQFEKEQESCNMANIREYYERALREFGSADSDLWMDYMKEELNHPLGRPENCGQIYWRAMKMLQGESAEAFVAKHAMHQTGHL

[6] = molecular target: T8, nucleosome assembly protein 1 like 1, transcript variant 1 (human, UniProt P55209 2-388); assay: protein array
T8 construct: on protein array; also called NAP1L1
T8 sequence: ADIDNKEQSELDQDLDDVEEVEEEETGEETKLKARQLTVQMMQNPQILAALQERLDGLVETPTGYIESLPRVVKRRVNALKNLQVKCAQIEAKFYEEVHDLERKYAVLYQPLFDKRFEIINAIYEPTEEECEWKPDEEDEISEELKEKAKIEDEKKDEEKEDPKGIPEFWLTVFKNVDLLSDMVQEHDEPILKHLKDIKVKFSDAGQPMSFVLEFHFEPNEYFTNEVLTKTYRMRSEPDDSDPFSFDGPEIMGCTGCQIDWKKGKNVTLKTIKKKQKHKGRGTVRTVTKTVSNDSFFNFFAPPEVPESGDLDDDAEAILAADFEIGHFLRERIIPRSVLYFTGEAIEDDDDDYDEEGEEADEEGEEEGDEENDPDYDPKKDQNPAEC

[7] = molecular target: T9, nudE neurodevelopment protein 1, transcript variant 1 (human, UniProt Q9NXR1 1-335); assay: protein array
T9 construct: on protein array; also called NDE1
T9 sequence: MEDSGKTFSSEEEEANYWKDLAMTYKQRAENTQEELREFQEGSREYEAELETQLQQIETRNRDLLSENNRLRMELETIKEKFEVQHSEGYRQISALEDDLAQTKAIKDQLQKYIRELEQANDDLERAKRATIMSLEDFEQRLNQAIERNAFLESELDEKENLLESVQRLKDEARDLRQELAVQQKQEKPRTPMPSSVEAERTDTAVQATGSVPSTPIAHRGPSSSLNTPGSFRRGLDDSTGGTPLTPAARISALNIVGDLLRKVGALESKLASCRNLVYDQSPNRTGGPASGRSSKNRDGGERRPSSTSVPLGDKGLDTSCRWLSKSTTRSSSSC

[8] = molecular target: T10, phospholipid scramblase 4, transcript variant X4 (human, UniProt Q9NRQ2 1-329); assay: protein array
T10 construct: on protein array; also called PLSCR4
T10 chain: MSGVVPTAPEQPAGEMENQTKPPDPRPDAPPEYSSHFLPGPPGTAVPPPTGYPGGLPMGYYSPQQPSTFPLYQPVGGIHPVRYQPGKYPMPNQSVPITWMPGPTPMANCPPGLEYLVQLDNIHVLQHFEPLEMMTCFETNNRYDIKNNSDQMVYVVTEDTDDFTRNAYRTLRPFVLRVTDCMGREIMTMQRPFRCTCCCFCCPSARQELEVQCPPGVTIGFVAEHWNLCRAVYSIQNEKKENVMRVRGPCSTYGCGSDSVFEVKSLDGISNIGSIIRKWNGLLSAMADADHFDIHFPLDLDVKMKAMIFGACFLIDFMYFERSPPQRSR

[9] = molecular target: T11, TruB pseudouridine synthase family member 1 (human, UniProt Q8WWH5 2-349); assay: protein array
T11 construct: on protein array; also called TRUB1
T11 sequence: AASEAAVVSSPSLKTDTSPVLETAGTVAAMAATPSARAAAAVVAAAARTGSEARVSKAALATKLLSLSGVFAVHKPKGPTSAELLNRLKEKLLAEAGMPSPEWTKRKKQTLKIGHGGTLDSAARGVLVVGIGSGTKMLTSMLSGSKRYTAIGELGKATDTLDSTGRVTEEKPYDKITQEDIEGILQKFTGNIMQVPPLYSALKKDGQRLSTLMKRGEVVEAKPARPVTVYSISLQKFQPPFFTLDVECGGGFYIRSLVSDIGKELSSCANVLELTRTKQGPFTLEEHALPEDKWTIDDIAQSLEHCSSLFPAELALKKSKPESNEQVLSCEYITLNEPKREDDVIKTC

binding result [6]: binds
B7: TCER1001 (antibody, V domains shown)
VH: EVQLVESGGGLVQPGRSLRLSCAASGFTFDDYAMHWVRQAPGKGLEWVSGISWNSGSIGYADSVKGRFTISRDNAKNSLYLQMNSLRAEDTALYYCAKDLLGFRDQRNYYGMDVWGQGTTVTVSS
VL: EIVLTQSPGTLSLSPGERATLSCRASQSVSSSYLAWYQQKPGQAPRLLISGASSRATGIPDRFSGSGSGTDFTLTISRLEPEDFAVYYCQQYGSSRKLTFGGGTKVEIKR
notes: VH/VL only

binding result [7]: binds
B8: TCER1002 (antibody, V domains shown)
VH: QVQLQESGPGLVKPSETLSLSCTVSGASMNNYYWSWIRQSAGKGLEWIGRIYSSGDTDYNPSLKTRVTMSIDTSKNQFSLNLDSVTAADTATYYCARSFYDTLFYFENWGQGTLVTVSS
VL: DIQMTQSPSTLSASVGDRVTITCRASQSISVWLAWYQQKPGKAPKLLIYKASTLEAGVPSRFSGSGSGTEFSLTISGLQPDDFGTYFCQHYDSYPWTFGQGTKVEMK
notes: VH/VL only

binding result [8]: binds | binding result [9]: binds
B9: TCER1003 (antibody, V domains shown)
VH: QITLKESGPTLVKPTQTLTLTCTFSGFSLTTTDVGVGWIRQPPGKALEWLTIIYWDDDERYSPSLKSRLTITKDTSKNQVVLSMTNMDPVDTATYYCARVYSTKWDFDYWGQGTLVTVSS
VL: VSSELTQDPAVSVALGQTVRITCQGDSLRRYYVSWYRQKPGEAPVVVIYGKNNRPSWIPDRLSGSSSGNTASLTITGAQAEDEADYYCCSRDSSGNPWVFGGGTKLTVLG
notes: VH/VL only

Continued, binder first:

B1: TBLA1006 (antibody, V domains shown)
VH: VQLVDSGGGLVQPGRSLRLSCAASGFVFDDYAMHWVRQVPGKGLEWVSGISWNSVSIGYADSVKGRFTISRDNAKNSLYLQMNSLRPEDAALYYCVKSFSAEYYYYYYGMDVWGQGTTVTVSS
VL: LYVLTQPPSVSVAPGTTAWISCGGNNIGIKSVHWYQQKPGQAPLLVISYDSDRPSVIPERFSVSNSGNTVTLTISRVEAGDEADYYCQVWDNGHSHWVFGGGTKLTVLG
notes: VH/VL only
binding result [1]: binds

B2: TCHO1001 (antibody, V domains shown)
VH: PVHLVQSGAEVKKPGSSVKVSCKLSGGIFSYFAIIWVRQAPGQGLEWMGTIIPIFGTSNYAEKFQDRVAIVADEATSTVYMEVNSLRSEDTAIYFCARDSEVEKSDGYMASTAEYFQLWGQGTLVTVSS
VL: not shown
notes: VH/VL only
binding result [2]: binds

B3: TCOL1004 (antibody, V domains shown)
VH: QVQLQESGPGLVKPSQTLSLTCIVSGGSISGDKNFWSWVRQHPEKGLEWLGYISYNGNTYYNPSLISRIIISLDTPKNLFSLRLSSVTVADTAIYYCAREVDIRGDSDAFDIWGRGTVVTVSS
VL: EIVMTQSPATLSVSPGERATLSCRASQSVSTNLAWYQQRPGQAPRLFIFGASTRATGIPARFSGSGSGTEFTLTISSPQPEDSAVYYCQQYTTRPLTFGGGTKVEIKR
notes: VH/VL only
binding result (extended synaptotagmin 2): binds

B4: TCER1006 (antibody, V domains shown)
VH: EVQLVQSGAEVKKPGESLKISCKGSGYSFTSFWIGWVRQMPGKGLEWMGIIFPADSDTRYSPSFQGQVIISVDKSISTAYLQWSSLKASDTAMYYCARRGVSGGSAWTYYNFFDPWGQGTLVTVAS
VL: PSVLTQPPSVSAAPGQKVTISCSGSSSNIDNNYVSWYQQLPGTAPKLLIYENNKRASGIPDRFSGSKSGTSATLGITGLQTGDEADYYCGTWDSSLSPGGVFGGGTKLTVLG
notes: VH/VL only
binding result [3]: binds

B5: TBRE1045 (antibody, V domains shown)
VH: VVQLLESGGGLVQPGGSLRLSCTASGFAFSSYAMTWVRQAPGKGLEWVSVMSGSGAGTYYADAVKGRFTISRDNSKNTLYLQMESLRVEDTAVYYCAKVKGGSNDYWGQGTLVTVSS
VL: PYVLTQPPSVSVAPGQTARITCGGNNIGSKSVHWYQQKPGQAPVMVVYADRERPSGIPERLSGSNFGNTATLTISRVEAGDEADYYCQVWDSNNDHREVFGGGTKLTVLG
notes: VH/VL only
binding result (LN608403.1_frag): binds | binding result [4]: binds

B6: TUCE1005 (antibody, V domains shown)
VH: QVQLQESGPGLVKPSETLSLTCTVSGGSISSYYWSWIRQPAGKGLEWIGRIYTSGSTNYNPSLKSRVTMSVDTSKNQFSLKMSSVTAADTAVYYCARGELLFDHWGQGTLVTVSS
VL: not shown
binding result [5]: binds
